Data: US20140105889A1 (published 2014)
Values belong to the binder of their own block, whether it stands above or below them.

Assays:
mouse FcγRIV = biological target: T1, mouse FcγRIV (mouse); assay: SPR (Biacore), antibody captured on Protein L, mouse FcγR as analyte, pH 7.4, 25 C
T1 construct: Bought soluble receptor; also called mFcgRIV; mFcgR IV

[1] = biological target: T2, human FcRn (soluble human FcRn complexed with beta2-microglobulin) (human, UniProt P61769 21-119); assay: Biacore SPR, antibody captured on Protein L, human FcRn analyte, pH 7.0
T2 construct: Soluble human FcRn complexed with beta2-microglobulin; also called hFcRn

FcγRIIb = biological target: T3, FcγRIIb (human, UniProt P31994 43-217, limits assumed); assay: SPR (Biacore), antibody captured on chip, FcγR as analyte, method of Example 14
T3 construct: Soluble analyte in Biacore; also called FcgRIIb; FcγIIB
T3 sequence: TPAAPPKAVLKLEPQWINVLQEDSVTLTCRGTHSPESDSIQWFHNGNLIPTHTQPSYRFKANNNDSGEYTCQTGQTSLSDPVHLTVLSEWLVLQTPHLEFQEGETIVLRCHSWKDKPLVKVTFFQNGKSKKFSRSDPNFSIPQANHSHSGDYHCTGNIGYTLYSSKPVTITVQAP

FcγRIIIa type V = biological target: T4, FcγRIIIa type V (human, UniProt P08637 17-208, limits assumed); assay: as above
T4 construct: Soluble analyte in Biacore; also called FcγRIIIaV; FcγRIIIa(V)
T4 sequence (P08637 other isoform, or with tags, fused parts or gaps limits assumed): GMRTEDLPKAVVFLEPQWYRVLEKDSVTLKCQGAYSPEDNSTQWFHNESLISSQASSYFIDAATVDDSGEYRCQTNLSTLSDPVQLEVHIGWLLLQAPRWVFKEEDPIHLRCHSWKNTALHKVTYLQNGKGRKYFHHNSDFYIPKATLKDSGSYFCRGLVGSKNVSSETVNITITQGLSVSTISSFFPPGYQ

[2] = biological target: T5, human FcRn (soluble human FcRn complexed with beta2-microglobulin) (human, UniProt P61769 21-119); assay: SPR (Biacore), pH 7.0, 25 C, antibody captured by Protein L, human FcRn as analyte
T5 construct: also called hFcRn

T1 sequence (A0A0B4J1G0 21-203): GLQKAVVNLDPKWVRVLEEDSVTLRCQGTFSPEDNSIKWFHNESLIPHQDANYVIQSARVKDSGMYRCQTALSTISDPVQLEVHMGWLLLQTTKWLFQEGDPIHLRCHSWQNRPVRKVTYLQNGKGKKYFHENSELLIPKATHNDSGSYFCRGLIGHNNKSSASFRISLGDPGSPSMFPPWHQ

Kd [1]: 650 nM
B2: IgG1-F273 (antibody, name in EU numbering)
heavy: QVQLQESGPGLVKPSETLSLTCAVSGHSISHDHAWSWVRQPPGEGLEWIGFISYSGITNYNPSLQGRVTISRDNSKNTLYLQMNSLRAEDTAVYYCARSLARTTAMDYWGEGTLVTVSSASTKGPSVFPLAPSSKSTSGGTAALGCLVKDYFPEPVTVSWNSGALTSGVHTFPAVLQSSGLYSLSSVVTVPSSSLGTQTYICNVNHKPSNTKVDKKVEPKSCDKTHTCPPCPAPELLGGPSVFLFPPKPKDTLYISRTPEVTCVVVDVSHEDPEVKFNWYVDGVEVHNAKTKPREEQYNSTYRVVSVLTVLHQDWLNGKEYKCKVSNKALPAPIEKTISKAKGQPREPQVYTLPPSRDELTKNQVSLTCLVKGFYPSDIAVEWASNGQPENNYKTTPPVLDSDGSFFLYSKLTVDKSRWQQGNVFSCSVFHEALHYHYTQKSLSLSP
light: not shown
notes: Fc variant of VH3-IgG1; copies: 2 + 2

Kd (FcγRIIb): 640 nM
Kd (FcγRIIIa type V): 65000 nM
B4: IL6R-BP207/IL6R-L (antibody, human IgG1)
heavy: QVQLQESGPGLVKPSETLSLTCAVSGHSISHDHAWSWVRQPPGEGLEWIGFISYSGITNYNPSLQGRVTISRDNSKNTLYLQMNSLRAEDTAVYYCARSLARTTAMDYWGEGTLVTVSSASTKGPSVFPLAPSSKSTSGGTAALGCLVKDYFPEPVTVSWNSGALTSGVHTFPAVLQSSGLYSLSSVVTVPSSSLGTQTYICNVNHKPSNTKVDKKVEPKSCDKTHTCPPCPAPDLLGGDSVFLFPPKPKDTLMISRTPEVTCVVVDVSHEDPEVKFNWYVDGVEVHNAKTKPREEQYNSTYRVVSVLTVLHQDWLNGKEYKCKVSNKALPRPIEKTISKAKGQPREPQVYTLPPSRDELTKNQVSLTCLVKGFYPSDIAVEWESNGQPENNYKTTPPVLDSDGSFFLYSKLTVDKSRWQQGNVFSCSVMHEALHNHYTQESLSLSP
light: DIQMTQSPSSLSASVGDRVTITCRASQDISSYLNWYQQKPGKAPKLLIYYTSRLHSGVPSRFSGSGSGTDFTFTISSLQPEDIATYYCQQGNTLPYTFGQGTKVEIK
notes: Anti-human IL-6 receptor IgG1 Fc variant

Kd [1]: 92 nM
B5: IgG1-F281 (antibody, name in EU numbering)
heavy: QVQLQESGPGLVKPSETLSLTCAVSGHSISHDHAWSWVRQPPGEGLEWIGFISYSGITNYNPSLQGRVTISRDNSKNTLYLQMNSLRAEDTAVYYCARSLARTTAMDYWGEGTLVTVSSASTKGPSVFPLAPSSKSTSGGTAALGCLVKDYFPEPVTVSWNSGALTSGVHTFPAVLQSSGLYSLSSVVTVPSSSLGTQTYICNVNHKPSNTKVDKKVEPKSCDKTHTCPPCPAPELLGGPSVFLFPPKPKDTLYISRTPEVTCVVVDVSHEDPEVKFNWYVDGVEVHNAKTKPREEQYNSTYRVVSVLTPLHQDWLNGKEYKCKVSNKALPAPIEKTISKAKGQPREPQVYTLPPSRDELTKNQVSLTCLVKGFYPSDIAVEWASNGQPENNYKTTPPVLDSDGSFFLYSKLTVDKSRWQQGNVFSCSVFHEALHYHYTQKSLSLSP
light: not shown
notes: as for B2

Kd [2]: 330 nM
B8: IgG1-F919 (antibody, name in EU numbering)
heavy: QVQLQESGPGLVKPSETLSLTCAVSGHSISHDHAWSWVRQPPGEGLEWIGFISYSGITNYNPSLQGRVTISRDNSKNTLYLQMNSLRAEDTAVYYCARSLARTTAMDYWGEGTLVTVSSASTKGPSVFPLAPSSKSTSGGTAALGCLVKDYFPEPVTVSWNSGALTSGVHTFPAVLQSSGLYSLSSVVTVPSSSLGTQTYICNVNHKPSNTKVDKKVEPKSCDKTHTCPPCPAPELLGGPSVFLFPPKPKDTLYISRTPEVTCVVVDVSHEDPEVKFNWYVGGVEVHNAKTKPREEQYNSTYRVVSVLTVLHQDWLNGKEYKCKVSNKALPAPIEKTISKAKGQPREPQVYTLPPSRDELTKNQVSLTCLVKGFYPSDIAVEWESAGQPEANYKTTPPVLDSDGSFFLYSKLTVDKSRWQQGNVFSCSVMHEALHYHYTQKSLSLSP
light: not shown

Kd [1]: 690 nM
B10: IgG1-F271 (antibody, name in EU numbering)
heavy: QVQLQESGPGLVKPSETLSLTCAVSGHSISHDHAWSWVRQPPGEGLEWIGFISYSGITNYNPSLQGRVTISRDNSKNTLYLQMNSLRAEDTAVYYCARSLARTTAMDYWGEGTLVTVSSASTKGPSVFPLAPSSKSTSGGTAALGCLVKDYFPEPVTVSWNSGALTSGVHTFPAVLQSSGLYSLSSVVTVPSSSLGTQTYICNVNHKPSNTKVDKKVEPKSCDKTHTCPPCPAPELLGGPSVFLFPPKPKDTLYISRTPEVTCVVVDVSHEDPEVKFNWYVDGVEVHNAKTKPREEQYNSTYRVVSVLTVLHQDWLNGKEYKCKVSNKALPAPIEKTISKAKGQPREPQVYTLPPSRDELTKNQVSLTCLVKGFYPSAIAVEWESNGQPENNYKTTPPVLDSDGSFFLYSKLTVDKSRWQQGNVFSCSVFHEALHYHYTQKSLSLSP
light: not shown
notes: as for B2

Kd [2]: 320 nM
B11: IgG1-F936 (antibody, name in EU numbering)
heavy: QVQLQESGPGLVKPSETLSLTCAVSGHSISHDHAWSWVRQPPGEGLEWIGFISYSGITNYNPSLQGRVTISRDNSKNTLYLQMNSLRAEDTAVYYCARSLARTTAMDYWGEGTLVTVSSASTKGPSVFPLAPSSKSTSGGTAALGCLVKDYFPEPVTVSWNSGALTSGVHTFPAVLQSSGLYSLSSVVTVPSSSLGTQTYICNVNHKPSNTKVDKKVEPKSCDKTHTCPPCPAPELLGRDSVFLFPPKPKDVLYISRTPEVTCVVVDVSHEDPEVKFNWYVDGVEVHNAKTKPREEQYNSTYRVVSVLTVLHQDWLNGKEYKCKVSNKALPAPIEKTISKAKGQPREPQVYTLPPSRDELTKNQVSLTCLVKGFYPSDIAVEWESNGQPENNYKTTPPVLDSDGSFFLYSKLTVDKSRWQQGNVFSCSVMHEALHYHYTQKSLSLSP
light: not shown

More lines, now with the values behind:

B1: VH3/L(WT)-IgG1-F140 (antibody)
heavy: QVQLQESGPGLVKPSETLSLTCAVSGHSISHDHAWSWVRQPPGEGLEWIGFISYSGITNYNPSLQGRVTISRDNSKNTLYLQMNSLRAEDTAVYYCARSLARTTAMDYWGEGTLVTVSSASTKGPSVFPLAPSSKSTSGGTAALGCLVKDYFPEPVTVSWNSGALTSGVHTFPAVLQSSGLYSLSSVVTVPSSSLGTQTYICNVNHKPSNTKVDKKVEPKSCDKTHTCPPCPAPELLGGPKVFLFPPKPKDTLYISRTPEVTCVVVDVSHEDPEVKFNWYVDGVEVHNAKTKPREEQYNSTYRVVSVLTPLHQDWLNGKEYKCKVSNKALPAPIEKTISKAKGQPREPQVYTLPPSRDELTKNQVSLTCLVKGFYPSDIAVEWESNGQPENNYKTTPPVLDSDGSFFLYSKLTVDKSRWQQGNVFSCSVMHEALHYHYTQKSLSLSP
light: not shown
notes: copies: 2 + 2
BINDING AMOUNT (RU) (mouse FcγRIV): 108 RU

B3: antibody with VH3-IgG1-F157 heavy chain and L(WT)-CK light chain (antibody)
heavy: QVQLQESGPGLVKPSETLSLTCAVSGHSISHDHAWSWVRQPPGEGLEWIGFISYSGITNYNPSLQGRVTISRDNSKNTLYLQMNSLRAEDTAVYYCARSLARTTAMDYWGEGTLVTVSSASTKGPSVFPLAPSSKSTSGGTAALGCLVKDYFPEPVTVSWNSGALTSGVHTFPAVLQSSGLYSLSSVVTVPSSSLGTQTYICNVNHKPSNTKVDKKVEPKSCDKTHTCPPCPAPELLGGPSVFLFPPKPKDTLMISRTAEVTCVVVDVSHEDPEVKFNWYVDGVEVHNAKTKPREEQYNSTYRVVSVLTPLHQDWLNGKEYKCKVSNKALPAPIEKTISKAKGQPREPQVYTLPPSRDELTKNQVSLTCLVKGFYPSDIAVEWESNGQPENNYKTTPPVLDSDGSFFLYSKLTVDKSRWQQGNVFSCSVLHEALHYHYTQKSLSLSP
light: not shown
notes: copies: 2 + 2
BINDING AMOUNT (RU) (mouse FcγRIV): 243 RU

B6: IgG1-F928 (antibody, name in EU numbering)
heavy: QVQLQESGPGLVKPSETLSLTCAVSGHSISHDHAWSWVRQPPGEGLEWIGFISYSGITNYNPSLQGRVTISRDNSKNTLYLQMNSLRAEDTAVYYCARSLARTTAMDYWGEGTLVTVSSASTKGPSVFPLAPSSKSTSGGTAALGCLVKDYFPEPVTVSWNSGALTSGVHTFPAVLQSSGLYSLSSVVTVPSSSLGTQTYICNVNHKPSNTKVDKKVEPKSCDKTHTCPPCPAPELLGGPSVFLFPPKPKDTLYISRTPEVTCVVVDVSHEDPEVKFNWYVDGVEVHNAKTKPREEQYNSTYRVVSVLQVLHADWLNGKEYKCKVSNKALPAPIEKTISKAKGQPREPQVYTLPPSRDELTKNQVSLTCLVKGFYPSDIAVEWESNGQPENNYKTTPPVLDSDGSFFLYSKLTVDKSRWQQGNVFSCSVMHEALHYHITQKSLSLSP
light: not shown
Kd [2]: 29 nM

B7: IgG1-F276 (antibody, name in EU numbering)
heavy: QVQLQESGPGLVKPSETLSLTCAVSGHSISHDHAWSWVRQPPGEGLEWIGFISYSGITNYNPSLQGRVTISRDNSKNTLYLQMNSLRAEDTAVYYCARSLARTTAMDYWGEGTLVTVSSASTKGPSVFPLAPSSKSTSGGTAALGCLVKDYFPEPVTVSWNSGALTSGVHTFPAVLQSSGLYSLSSVVTVPSSSLGTQTYICNVNHKPSNTKVDKKVEPKSCDKTHTCPPCPAPELLGGPSVFLFPPKPKDTLYISRTPEVTCVVVDVSHEFPEVKFNWYVDGVEVHNAKTKPREEQYNSTYRVVSVLTPLHQDWLNGKEYKCKVSNKALPAPIEKTISKAKGQPREPQVYTLPPSRDELTKNQVSLTCLVKGFYPSDIAVEWASNGQPENNYKTTPPVLDSDGSFFLYSKLTVDKSRWQQGNVFSCSVMHEALHYHYTQKSLSLSP
light: not shown
notes: as for B2
Kd [1]: 41 nM

B9: antibody with VH3-IgG1-F424 heavy chain and L(WT)-CK light chain (antibody)
heavy: QVQLQESGPGLVKPSETLSLTCAVSGHSISHDHAWSWVRQPPGEGLEWIGFISYSGITNYNPSLQGRVTISRDNSKNTLYLQMNSLRAEDTAVYYCARSLARTTAMDYWGEGTLVTVSSASTKGPSVFPLAPSSKSTSGGTAALGCLVKDYFPEPVTVSWNSGALTSGVHTFPAVLQSSGLYSLSSVVTVPSSSLGTQTYICNVNHKPSNTKVDKKVEPKSCDKTHTCPPCPAPELLGGPKVFLFPPKPKDTLMISRTAEVTCVVVDVSHEDPEVKFNWYVDGVEVHNAKTKPREEQYNSTYRVVSVLTPLHQDWLNGKEYKCKVSNKALPAPIEKTISKAKGQPREPQVYTLPPSRDELTKNQVSLTCLVKGFYPSDIAVEWESNGQPENNYKTTPPVLDSDGSFFLYSKLTVDKSRWQQGNVFSCSVLHEALHYHYTQKSLSLSP
light: not shown
notes: copies: 2 + 2
BINDING AMOUNT (RU) (mouse FcγRIV): 138 RU
